Where two headings read alike, the source gives them in different places.

Drawing on patent publication US20240352130A1 (CHILDREN S HOSPITAL OF PHILADELPHIA, published 2024), this text covers Kd, binding result and koff for 4 molecules.

Experiment [1] deals with T1, PHOX2B (43-51) A*24:02 MHC complex (human).
T1 construct: also called PHOX2B (43-51) complex; PHOX2B target pMHC
Briefly: BLI (BLItz), biotinylated scFv on streptavidin sensor, soluble pMHC 200 nM.
Description: (§1) Binding kinetics. Affinity measurements were performed using a BLItz™ system (ForteBio, USA) and analyzed using the BLItz Pro™ software.

In experiment [2] the target is T2, … HLA-A*24:02 complex (human).
T2 construct: also called Unrelated peptide 1
The experiment in a line: bead-based binding, scFv on streptavidin beads, fluorescent pMHC.

Experiment [3] deals with T3, … HLA-A*24:02 complex (human).
T3 construct: also called Unrelated peptide 2
Described as above.

Experiment [4] has as its target T4, … HLA-A*24:02 complex (human).
T4 construct: also called Unrelated peptide 3
The experiment is described as above.

The target in experiment [5] is T5, … HLA-A*24:02 complex (human).
T5 construct: also called Unrelated peptide 4
Described as above.

The target in experiment [6] is T1, PHOX2B (43-51) A*24:02 MHC complex. Briefly: BLI (BLItz), biotinylated scFv on streptavidin sensor, soluble pMHC 200 nM. The source holds these as a separate data set.
Description: as §1
The target in experiment [7] is T2, … HLA-A*24:02 complex. The experiment in a line: bead-based binding, scFv on streptavidin beads, fluorescent pMHC. This is another data set of the same source.
Experiment [8] deals with T3, … HLA-A*24:02 complex. Described as above. This is another data set of the same source.
The target of experiment [9] is T4, … HLA-A*24:02 complex. Described as above. This is another data set of the same source.
The target in experiment [10] is T5, … HLA-A*24:02 complex. The description is as above. This is another data set of the same source.
Experiment [11] concerns the target T1, PHOX2B (43-51) A*24:02 MHC complex. The experiment in a line: BLI (BLItz), biotinylated scFv on streptavidin sensor, soluble pMHC 200 nM. The source holds these as a separate data set.
Description: as §1
Experiment [12] has as its target T2, … HLA-A*24:02 complex. Briefly: bead-based binding, scFv on streptavidin beads, fluorescent pMHC. The source holds these as a separate data set.
Experiment [13] has as its target T3, … HLA-A*24:02 complex. Described as above. This is another data set of the same source.
For experiment [14], the target named is T4, … HLA-A*24:02 complex. The experiment is described as above. The source holds these as a separate data set.
Experiment [15] deals with T5, … HLA-A*24:02 complex. The description is as above. The source holds these as a separate data set.
The target of experiment [16] is T1, PHOX2B (43-51) A*24:02 MHC complex. Briefly: BLI (BLItz), biotinylated scFv on a streptavidin sensor, soluble pMHC in solution.
Description: as §1
The target in experiment [17] is T2, … HLA-A*24:02 complex. The experiment in a line: bead-based steady-state binding assay (FIG. 3A).
Description: (§2) Steady-state binding assay. An equilibrium binding assay to target pMHCs was also established using MyOne Streptavidin C1 Dynabeads. Briefly, 50 micrograms of Streptavidin C1 Dynabeads were incubated with excess biotinylated scFv before being blocked with free biotin and washed in PBS. […] Binding was normalized to beads without scFv and with unrelated control MHC complex.
In experiment [18] the target is T3, … HLA-A*24:02 complex. Briefly: bead-based steady-state binding assay (FIG. 3A).
Description: as §2
Experiment [19] has as its target T4, … HLA-A*24:02 complex. The experiment in a line: bead-based steady-state binding assay (FIG. 3A).
Description: as §2
Experiment [20] addresses T5, … HLA-A*24:02 complex. Briefly: bead-based steady-state binding assay (FIG. 3A).
Description: as §2
Experiment [21] addresses T1, PHOX2B (43-51) A*24:02 MHC complex. The experiment in a line: BLI (BLItz), biotinylated scFv on streptavidin sensor, soluble pMHC 200 nM. This is another data set of the same source.
Description: as §1

B1: Clone 9 (RU-201-9) scFv (scFv)
scFv: SRNGGDGQSVLTQPPSVSVSPGQTASITCSGDSLGYKYACWYQQKPGQSPVLVIYQDSKRPSGIPERFSGSNSGNTATLTISGTQAMDEADYYCQAWDSLGVNTVVFGTGTKVTVSSQTGGSGGGGSGGGGSGGGGSEVQLLESGGGLVQPGGSLRLSCAASGFTFNYYAMSWVRQAPGKGLEWVSAISGYGGSTYYADSVKGRFTISRDNSKNTLYLQMNSLRAEDTAVYYCAKASEAYSAFDIWGQGTMVTVSSS
In the case of B1, the affinity in [1], expressed as Kd, was 100 nM. Moreover, the binding result in the experiment with … HLA-A*24:02 complex [2], with … HLA-A*24:02 complex [3], in the experiment with … HLA-A*24:02 complex [4] and with … HLA-A*24:02 complex [5] was “no binding (tested: 3.5 nM)” in each case.

B2: Clone 1114 (RU201-1114) scFv (scFv)
scFv: SRNGGDGQSVLTQPPSVSVSPGQTASITCSGDKLGDKYACWYQQKPGQSPVLVIYQDSKRPSGIPERFSGSNSGNTATLTISGTQAMDEADYYCQAWDSIGNMTVVFGTGTKVTVSSQTGGSGGGGSGGGGSGGGGSEVQLLESGGGLVQPGGSLRLSCAASGFTFDYYAMSWVRQAPGKGLEWVSAISGYGGSTYYADSVKGRFTISRDNSKNTLYLQMNSLRAEDTAVYYCAKASEYTNAFDIWGQGIMVTVSSS
For the molecule B2, the Kd in [6] is 270 nM. Further, the binding result with … HLA-A*24:02 complex [7], with … HLA-A*24:02 complex [8], with … HLA-A*24:02 complex [9] and with … HLA-A*24:02 complex [10] was “no binding (tested: 3.5 nM)” in each case.

B3: Clone 1113 (RU-201-1113) scFv (scFv)
scFv: SRNGGDGQSVLTQPPSVSAAPGQKVTISCSGSSSNIGNNYVSWYQQLPGTAPKLLIYDNNKRPSGIPDRFSGSKSGTSATLGITGLQTGDEADYYCGTWDHMGRNTVVFGTGTKVTVSSQTGGSGGGGSGGGGSGGGGSEVQLLESGGGLVQPGGSLRLSCAASGFTFSDYAMSWVRQAPGKGLEWVSAISGTGGSTYYADSVKGRFTISRDNSKNTLYLQMNSLRAEDTAVYYCAKEFSVVNSAAFDIWGQGTMVTVSSS
Regarding B3, the affinity in experiment [11], expressed as Kd, was 9 nM. Further, the binding result with … HLA-A*24:02 complex [12], with … HLA-A*24:02 complex [13], in the experiment with … HLA-A*24:02 complex [14] and in the experiment with … HLA-A*24:02 complex [15] was “no binding (tested: 3.5 nM)” throughout.

B4: Clone 10 (RU141-10) scFv (scFv)
scFv: SRNGGDGQSVLTQPPSVSVSPGQTASITCSGDSLGNKYACWYQQKPGQSPVLVIYQDSKRPSGIPERFSGSNSGNTATLTISGTQAMDEADYYCQAWDSSRGYTVVFGTGTKVTVSSQTGGSGGGGSGGGGSGGGGSEVQLLESGGGLVQPGGSLRLSCAASGFTFDSYAMSWVRQAPGKGLEWVSAISGYGGSTYYADSVKGRFTISRDNSKNTLYLQMNSLRAEDTAVYYCAKYTYFLDAFDIWGQGTMVTVSSS
In the case of B4, the koff in [16] was 0.00076 s⁻¹. The binding result in the experiment with … HLA-A*24:02 complex [17], in the experiment with … HLA-A*24:02 complex [18], in the experiment with … HLA-A*24:02 complex [19] and with … HLA-A*24:02 complex [20] was “no binding (tested: 3.5 nM pMHC)” in each case. The dissociation constant (Kd) in experiment [21] is 10 nM.

Broadly, the Kd is the concentration at which binding is half-saturated. High values mean weaker binding, low ones tighter binding. What is called koff is the first-order rate constant of dissociation. Read a high koff as fast dissociation.
